Measured values: patent US20260132197A1 (NANJING LEGEND BIOTECH, published 2026)
One block for each binder: values may come before it.

Experiments:
[1] = target: T1, human CD47 on cells (SHP-77 tumor cells, human red blood cells, CCRF-CEM cells, human CD47 CHO-K1 stable cell … (human, UniProt Q08722 19-323)); assay: flow cytometry on human RBCs;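 further: antibody binding measured by flow cytometry as geometric mean fluorescence intensity over a range of antibody concentrations, with EC50 and maximum taken from a sigmoidal dose-response fit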
T1 construct: whole, on cells; also called RBC

[2] = target: T2, cynomolgus CD47 on CHO-K1 stable cell line (cynomolgus, UniProt A0A5F8AK49 19-323 (rhesus entry)); assay: flow cytometry on cynomolgus CD47 CHO-K1 cells
T2 construct: whole, on cells; also called cynomolgus CD47/CHO-K1

[3] = target: T1, human CD47 on cells (SHP-77 tumor …); assay: cell-based or functional assay
[4] = target: T1, human CD47 on cells (SHP-77 tumor …); assay: flow cytometry on SHP-77 cells
[5] = target: T1, human CD47 on cells (SHP-77 tumor …); assay: flow cytometry on human CD47 CHO-K1 cells
Human CD47-C33G [6] = target: T3, Human CD47-C33G (human, UniProt Q08722 19-135); assay: SPR, IgG captured, CD47 in flow; exp 4
T3 construct: also called CD47 mutein with C33G mutation

[7] = target: T4, wild type human CD47 (Acro Biosystems, cat. no. CD7-H5227) (human, UniProt Q08722 19-139); assay: SPR, IgG captured, CD47 in flow; exp 4
T4 construct: Bought protein used as SPR analyte; also called Human CD47 wt; wild-type CD47

Human CD47-C33G [8] = target: T3, Human CD47-C33G; assay: SPR, IgG captured, CD47 in flow; exp 2
[9] = target: T4, wild type human CD47 (Acro Biosystems, …); assay: SPR, IgG captured, CD47 in flow; exp 2
Human CD47-C33G [10] = target: T3, Human CD47-C33G; assay: SPR, IgG captured, CD47 in flow; exp 3
[11] = target: T4, wild type human CD47 (Acro Biosystems, …); assay: SPR, IgG captured, CD47 in flow; exp 3
Human CD47-C33G [12] = target: T3, Human CD47-C33G; assay: SPR, IgG captured, CD47 in flow; exp 1
[13] = target: T4, wild type human CD47 (Acro Biosystems, …); assay: SPR, IgG captured, CD47 in flow; exp 1
Human CD47-C33G [14] = target: T3, Human CD47-C33G; assay: SPR, IgG captured, CD47 in flow; exp 3; remark: listed apart in the source
[15] = target: T4, wild type human CD47 (Acro Biosystems, …); assay: SPR, IgG captured, CD47 in flow; exp 3; remark: listed apart in the source
Human CD47-C33G [16] = target: T3, Human CD47-C33G; assay: SPR, IgG captured, CD47 in flow; exp 2; remark: listed apart in the source
[17] = target: T4, wild type human CD47 (Acro Biosystems, …); assay: SPR, IgG captured, CD47 in flow; exp 2; remark: listed apart in the source
Human CD47-C33G [18] = target: T3, Human CD47-C33G; assay: SPR, IgG captured, CD47 in flow; exp 1; remark: listed apart in the source
[19] = target: T4, wild type human CD47 (Acro Biosystems, …); assay: SPR, IgG captured, CD47 in flow; exp 1; remark: listed apart in the source
Human CD47-C33G [20] = target: T3, Human CD47-C33G; assay: SPR, IgG captured, CD47 in flow; exp 4; remark: listed apart in the source
[21] = target: T4, wild type human CD47 (Acro Biosystems, …); assay: SPR, IgG captured, CD47 in flow; exp 4; remark: listed apart in the source

B1: 108VH5.M23 / 108VL1.M5 (antibody, human IgG4 S228P, kappa, V domains shown)
VH: EVQLVQSGAEVKKPGASVKVSCKASGYTFTHHWMHWVRQAPGQGLEWMGMIDASDKETRYAQKFQGRVTMTRDTSTSTVYMELSSLRSEDTAVYYCARLGRYYFDYWGQGTLVTVSS
VL: EIVLTQSPATLSLSPGERATLSCRASQSVSSYLAWYQQKPGQAPRLLIYGASNRATGIPARFSGSGSGTDFTLTISSLEPEDFAVYYCGESYGHLYTFGGGTKVEIKR
notes: Full-length IgG4 (S228P), kappa; also called VH5.M23 VL1.M5
EC50 [1]: 5.8 nM
Fitted Maximal MFI [1]: 38800 MFI
EC50 [2]: 3.2 nM
CCRF-CEM phagocytosis EC50 [3]: 0.33 nM
CCRF-CEM phagocytosis, Phagocytosis (%) [3]: 64%
EC50 [4]: 8.1 nM
Fitted Maximal MFI [4]: 42100 MFI
EC50 [5]: 2.7 nM
Kd (Human CD47-C33G [6]): 33 nM
koff (Human CD47-C33G [6]): 0.0058 s⁻¹
kon (Human CD47-C33G [6]): 170000 M⁻¹ s⁻¹
Kd [7]: 6.4 nM
koff [7]: 0.0028 s⁻¹
kon [7]: 440000 M⁻¹ s⁻¹

B3: 108VH5.M17 / 108VL1.M5 (antibody, human IgG4 S228P, kappa, V domains shown)
VH: EVQLVQSGAEVKKPGASVKVSCKASGYTFTHHWMHWVRQAPGQGLEWMGMIDASEGETRYAQKFQGRVTMTRDTSTSTVYMELSSLRSEDTAVYYCARLGRYYFDYWGQGTLVTVSS
VL: EIVLTQSPATLSLSPGERATLSCRASQSVSSYLAWYQQKPGQAPRLLIYGASNRATGIPARFSGSGSGTDFTLTISSLEPEDFAVYYCGESYGHLYTFGGGTKVEIKR
notes: Full-length IgG4 (S228P), kappa; also called VH5.M17 VL1.M5
Kd (Human CD47-C33G [10]): 1300 nM
koff (Human CD47-C33G [10]): 0.084 s⁻¹
kon (Human CD47-C33G [10]): 64000 M⁻¹ s⁻¹
Kd [11]: 18 nM
koff [11]: 0.0084 s⁻¹
kon [11]: 460000 M⁻¹ s⁻¹

Continued, values first:

Kd (Human CD47-C33G [8]): 16 nM
koff (Human CD47-C33G [8]): 0.004 s⁻¹
kon (Human CD47-C33G [8]): 250000 M⁻¹ s⁻¹
Kd [9]: 2.8 nM
koff [9]: 0.0019 s⁻¹
kon [9]: 660000 M⁻¹ s⁻¹
B2: 108VH5.M10 / 108VL1.M5 (antibody, human IgG4 S228P, kappa, V domains shown)
VH: EVQLVQSGAEVKKPGASVKVSCKASGYTFTHHWIHWVRQAPGQGLEWMGMIDASDSETRYAQKFQGRVTMTRDTSTSTVYMELSSLRSEDTAVYYCARLGRYYFDYWGQGTLVTVSS
VL: EIVLTQSPATLSLSPGERATLSCRASQSVSSYLAWYQQKPGQAPRLLIYGASNRATGIPARFSGSGSGTDFTLTISSLEPEDFAVYYCGESYGHLYTFGGGTKVEIKR
notes: Full-length IgG4 (S228P), kappa; also called VH5.M10 VL1.M5

EC50 [2]: 0.6 nM
B4: Hu5F9 (antibody, V domains shown)
VH: QVQLVQSGAEVKKPGASVKVSCKASGYTFTNYNMHWVRQAPGQRLEWMGTIYPGNDDTSYNQKFKDRVTITADTSASTAYMELSSLRSEDTAVYYCARGGYRAMDYWGQGTLVTVSS
VL: DIVMTQSPLSLPVTPGEPASISCRSSQSIVYSNGNTYLGWYLQKPGQSPQLLIYKVSNRFSGVPDRFSGSGSGTDFTLKISRVEAEDVGVYYCFQGSHVPYTFGQGTKLEIK

Kd (Human CD47-C33G [10]): 0.95 nM
koff (Human CD47-C33G [10]): 0.00063 s⁻¹
kon (Human CD47-C33G [10]): 660000 M⁻¹ s⁻¹
Kd [11]: 0.2 nM
koff [11]: 0.00032 s⁻¹
kon [11]: 1.6e+06 M⁻¹ s⁻¹
Kd (Human CD47-C33G [8]): 1 nM
koff (Human CD47-C33G [8]): 0.00073 s⁻¹
kon (Human CD47-C33G [8]): 720000 M⁻¹ s⁻¹
Kd [9]: 0.19 nM
koff [9]: 0.00032 s⁻¹
kon [9]: 1.6e+06 M⁻¹ s⁻¹
Kd (Human CD47-C33G [12]): 0.92 nM
koff (Human CD47-C33G [12]): 0.00068 s⁻¹
kon (Human CD47-C33G [12]): 740000 M⁻¹ s⁻¹
Kd [13]: 0.2 nM
koff [13]: 0.00032 s⁻¹
kon [13]: 1.5e+06 M⁻¹ s⁻¹
Kd (Human CD47-C33G [14]): 0.95 nM
koff (Human CD47-C33G [14]): 0.00063 s⁻¹
kon (Human CD47-C33G [14]): 660000 M⁻¹ s⁻¹
Kd [15]: 0.2 nM
koff [15]: 0.00032 s⁻¹
kon [15]: 1.6e+06 M⁻¹ s⁻¹
Kd (Human CD47-C33G [16]): 1.3 nM
koff (Human CD47-C33G [16]): 0.00074 s⁻¹
kon (Human CD47-C33G [16]): 590000 M⁻¹ s⁻¹
Kd [17]: 0.21 nM
koff [17]: 0.00034 s⁻¹
kon [17]: 1.6e+06 M⁻¹ s⁻¹
Kd (Human CD47-C33G [18]): 1 nM
koff (Human CD47-C33G [18]): 0.00073 s⁻¹
kon (Human CD47-C33G [18]): 720000 M⁻¹ s⁻¹
Kd [19]: 0.19 nM
koff [19]: 0.00032 s⁻¹
kon [19]: 1.6e+06 M⁻¹ s⁻¹
Kd (Human CD47-C33G [20]): 0.67 nM
koff (Human CD47-C33G [20]): 0.00061 s⁻¹
kon (Human CD47-C33G [20]): 920000 M⁻¹ s⁻¹
Kd [21]: 0.17 nM
koff [21]: 0.0003 s⁻¹
kon [21]: 1.8e+06 M⁻¹ s⁻¹
Kd (Human CD47-C33G [6]): 0.67 nM
koff (Human CD47-C33G [6]): 0.00061 s⁻¹
kon (Human CD47-C33G [6]): 920000 M⁻¹ s⁻¹
Kd [7]: 0.17 nM
koff [7]: 0.0003 s⁻¹
kon [7]: 1.8e+06 M⁻¹ s⁻¹
B5: chimeric antibody 108C10A6 (antibody, V domains shown)
VH: QMQLQQSGPQLVRPGASVKISCKTSGYSFTHHWIHWMKQRPGQGLEWIGMIDPSDSETRLSQKFKDKATLTVDASSSTAYMQLNSPTSEDSALYFCARLGRYYFDYWGQGTTLTVSS
VL: NIVMTQSPRSMSMSVGERVTLSCKASENVGTYISWYQQKPDQSPKLLIYGASNRYTGVPDRFTGSGSGTDFTLTISTVQAEDLADYHCGESYGHLYTFGGGTKLEIK
notes: Chimeric antibody with mouse variable domains; captured through human Fc; also called VH / VL
